B1: KCNK9 (parent)
chain: DVPDLQSVCSCTCYRSQDYGGRSV
B2: INTS3 (parent)
chain: KKREFRFHPIKETVVEEPVDITPY

Variants of: B1
Experiment: protein stability index of a GFP-peptide fusion (GPS, HEK-293T) (PSI 1-6); higher = more stable
Details: c terminus: a fixed tail appended
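Also: lentivirally expressed fusions sorted by FACS into six bins by GFP to DsRed ratio, PSI derived from sequencing read proportions per bin multiplied by bin number.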

Protein stability index of substitutions, site by site:
D18: Y 1.56; V 1.82; H 2.85; Q 1.51; S 2.33; F 1.2; W 1.61; T 1.83; E 1.21; M 1.63; R 1.36; K 1.65; C 1.97
V24: H 1.64; Y 1.49; W 2.42; Q 1.72; A 1.68; K 1.45; T 2.73; F 1.13; N 2.5; E 2.15; C 1.49; S 1.68; I 2.37; P 2.35; D 2.69; L 2.44
Q17: S 2.41; R 2.58; W 2.44; T 2.39

Variants of: B2
Experiment: as above
Details: c terminus: a fixed tail appended

Protein stability index of substitutions, site by site:
K1: H 1.73; N 1.94; L 2.25; M 1.96; D 2.01; G 1.69; F 2.04; V 2.74; Y 2.12; R 1.84; Q 1.97; A 2.29; W 2.1; P 1.66; I 1.65; T 2.01; E 2.27; C 1.81; S 1.8
R3: F 1.62; P 1.66; H 2.14; C 2.35; E 2.74; A 1.82; M 1.43; I 2.25; G 1.72; K 2.46; L 1.61; N 1.76; D 2.84
K2: E 2.55; G 2.11; H 1.67; Y 1.6; C 1.9; F 2.08; A 1.56; T 2.14; R 2.29; D 2.53; I 2.55; L 1.83; W 2.03; Q 2.17; S 2.38; M 2.2; P 2.5; V 1.37; N 1.82
